Substitutions are numbered along the chain they refer to. In names and notes the source's numbering stands.

The target of test [1] is T1, purified recombinant human alpha synuclein fibrils (human, UniProt P37840 1-140). The experiment in a line: affinity for human alpha synuclein fibrils, IgG4P; method not given.
The target in test [2] is recombinant full-length human alpha synuclein monomer (human, UniProt P37840 1-140). The experiment in a line: SPR, Biacore T200, as in Example 3; Fab injected.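 Further: ligands amine-coupled on CM5 chip flow cells, HBS-EP+ running buffer, kinetic data fitted with 1:1 model allowing local bulk contribution and global Rmax.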
Procedure: (§1) Interaction kinetics were determined by using surface plasmon resonance technology on a Biacore T200 instrument. Three different ligands including recombinant full-length human alpha synuclein monomer, purified recombinant human alpha synuclein fibrils, and purified recombinant mouse alpha synuclein fibrils, prepared as described herein, were each immobilized on three different flow cells of a CM5 chip surface using amine-coupling chemistry. The three ligands were prepared in 10 mM NaAc, pH 3.5, and immobilized onto separate flow cell surfaces to reach an immobilization level of about 30 response units (RU) for alpha synuclein monomer, about 40 RU for human alpha synuclein fibrils, and about 300 RU for mouse alpha synuclein fibrils respectively, at a flow rate of 10 μI/min. The buffer HBS-EP+(GE healthcare Bio-Sciences AB) was used as running buffer for both ligand immobilization and kinetics assay. […] The surface was regenerated by one injection of 50 mM HCl for 90 s at 10 μI/min, and another injection of 50 mM HCl for 60 s at 10 μI/min. The data were analyzed using the Biacore T200 evaluation software (version 3.0) using the bivalent analyte model with assumed no bulk contribution (RI=0) and global Rmax for IgG format, and 1:1 model with flexible bulk contribution (local RI) and global Rmax.
Test [3] has as its target T1, purified recombinant human alpha …. In words: SPR, Biacore T200, as in Example 3; Fab injected.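 Further: ligands amine-coupled on CM5 chip flow cells, HBS-EP+ running buffer, kinetic data fitted with 1:1 model allowing local bulk contribution and global Rmax.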
Procedure: as §1

B1: 6470gL3gH46 (antibody, V domains shown)
VH: EVQLLESGGGLVQPGGSLRLSCAASGIDLSSHDMYWVRQAPGKGLEYIGAIYASGSTYYASWAKGRFTISRDNSKNTVYLQMNSLRAEDTAVYYCARIHYGNSGGLWGQGTLVTVSS
VL: DIQMTQSPSSLSASVGDRVTITCQASQSVYKNNYLAWFQQKPGKAPKQLIYGASTLASGVPSRFSGSGSGTQFTLTISSLQPEDFATYYCAGYKGGRNDGFAFGGGTKVEIKR
Regarding B1, the Kd in test [1] was 0.316 nM.

B2: 6470gL6gH23 (antibody, V domains shown)
VH: B1 VH with A24V
VL: B1 VL with Q48S
B2: the Kd in test [1] was 0.547 nM.

B3: 6470gL3gH27 (antibody, V domains shown)
VH: B1 VH with A24V, G49S, R71K, N73S
VL: B1 VL
In the case of B3, the equilibrium dissociation constant (Kd) in test [1] came to 22.3 nM.

B4: 6470gL6gH36 (antibody, V domains shown)
VH: B1 VH with A24V, N73S, V78L
VL: B1 VL with Q48S
For B4, the Kd in test [1] is 0.377 nM.

B5: 6470gL3gH35 (antibody, V domains shown)
VH: B1 VH with A24V, R71K, N73S, R97K
VL: B1 VL
B5: the Kd in test [1] turned out to be 5.28 nM.

B6: 6470gL3gH50 (antibody, V domains shown)
VH: B1 VH with N73S, V78L
VL: B1 VL
Turning to B6, in test [1], the dissociation constant Kd was determined as 0.58 nM.

B7: 6470gL3gH26 (antibody, V domains shown)
VH: B1 VH with A24V, I48V, R71K, N73S
VL: B1 VL
As to B7, the Kd in test [1] came out at 0.3 nM.

B8: 6470 rabbit Fab with heavy chain mutation H31K (Fab, V domains shown)
VH: QSVEESGGRLVTPGTPLTLTCTVSGIDLSSKDMYWVRQAPGKGLEYIGAIYASGSTYYASWAKGRFTISKTSTTVDLKMTSLTTEDTATYFCARIHYGNSGGLWGQGTLVTVSS
VL: AIVMTQTPSSKSVAVGDTVTINCQASQSVYKNNYLAWFQQKPGQPPKQLIYGASTLASGVPSRFKGSGSGTQFTLTISDVVCDDAATYYCAGYKGGRNDGFAFGGGTEVVVKR
On to B8, for which, in test [2], the Kd was 152 nM, the koff stood at 0.938 s⁻¹ and the kon came to 6.17e+06 M⁻¹ s⁻¹. In test [3], the Kd was determined as 46.7 nM, the koff stood at 0.423 s⁻¹ and the kon turned out to be 9.06e+06 M⁻¹ s⁻¹.

B9: 6470 rabbit Fab with heavy chain mutation S55N (Fab, V domains shown)
VH: B8 VH with K31H, S55N
VL: B8 VL
Take B9: in test [2], the Kd was determined as 1.9 nM, the koff is 0.0191 s⁻¹ and the kon came to 1.39e+07 M⁻¹ s⁻¹. In addition, in test [3], the Kd was determined as 1.4 nM, the koff came out at 0.013 s⁻¹ and the kon is 9.2e+06 M⁻¹ s⁻¹.

B10: 6470 rabbit Fab with light chain mutation N33R (Fab, V domains shown)
VH: B8 VH with K31H
VL: B8 VL with N33R
Consider B10, for which, in test [2], the koff stood at 0.0799 s⁻¹ and the kon is 1.92e+07 M⁻¹ s⁻¹. In test [3], the Kd worked out at 2.9 nM, the koff was 0.0289 s⁻¹ and the kon amounted to 9.98e+06 M⁻¹ s⁻¹.

B11: 6470 rabbit Fab with heavy chain mutation H31R (Fab, V domains shown)
VH: B8 VH with K31R
VL: B8 VL
For B11, in test [2], the Kd turned out to be 1660 nM, the koff was determined as 0.44 s⁻¹ and the kon was 265000 M⁻¹ s⁻¹. In addition, in test [3], the Kd was 62.3 nM, the koff turned out to be 0.373 s⁻¹ and the kon came out at 5.98e+06 M⁻¹ s⁻¹.

B12: 6470 rabbit Fab with heavy chain mutation S53N (Fab, V domains shown)
VH: B8 VH with K31H, S53N
VL: B8 VL
As for B12, in test [2], the Kd amounted to 1130 nM, the koff worked out at 0.0517 s⁻¹ and the kon came out at 45600 M⁻¹ s⁻¹. Further, in test [3], the Kd stood at 49.6 nM, the koff turned out to be 0.286 s⁻¹ and the on-rate (kon) stood at 5.75e+06 M⁻¹ s⁻¹.

B13: 6470 rabbit Fab with heavy chain mutation N99R (Fab, V domains shown)
VH: B8 VH with K31H, N99R
VL: B8 VL
Take B13: in test [2], the Kd is 16.9 nM, the koff was 0.17 s⁻¹ and the kon was determined as 1.22e+07 M⁻¹ s⁻¹. In addition, in test [3], the Kd is 15.3 nM, the koff came to 0.154 s⁻¹ and the on-rate constant (kon) came out at 1.89e+07 M⁻¹ s⁻¹.

B14: 6470 rabbit Fab with heavy chain mutation H31Q (Fab, V domains shown)
VH: B8 VH with K31Q
VL: B8 VL
For the molecule B14, in test [2], the Kd stood at 23.1 nM, the koff was 0.185 s⁻¹ and the kon worked out at 8e+06 M⁻¹ s⁻¹. Besides, in test [3], the Kd amounted to 12.4 nM, the koff stood at 0.0972 s⁻¹ and the kon was found to be 7.83e+06 M⁻¹ s⁻¹.

B15: 6470 rabbit Fab with light chain mutation N33K (Fab, V domains shown)
VH: B8 VH with K31H
VL: B8 VL with N33K
With B15, in test [2], the Kd amounted to 15.2 nM, the koff came to 0.0433 s⁻¹ and the kon was found to be 2.84e+06 M⁻¹ s⁻¹. In test [3], the Kd is 7.1 nM, the koff stood at 0.0498 s⁻¹ and the kon turned out to be 6.93e+06 M⁻¹ s⁻¹.

B16: 6470 rabbit Fab with heavy chain mutation N99H (Fab, V domains shown)
VH: B8 VH with K31H, N99H
VL: B8 VL
Take B16: in test [2], the Kd was 0.7 nM, the koff was determined as 0.00745 s⁻¹ and the kon amounted to 1.33e+07 M⁻¹ s⁻¹. Moreover, in test [3], the equilibrium dissociation constant (Kd) was 0.4 nM, the koff is 0.00401 s⁻¹ and the kon was 6.2e+06 M⁻¹ s⁻¹.

B17: 6470 rabbit Fab with light chain mutation Y30W (Fab, V domains shown)
VH: B8 VH with K31H
VL: B8 VL with Y30W
Regarding B17, in test [2], the Kd was 50.4 nM, the koff came out at 0.151 s⁻¹ and the kon worked out at 2.99e+06 M⁻¹ s⁻¹. In addition, in test [3], the Kd came out at 18.8 nM, the koff was 0.0895 s⁻¹ and the kon is 4.75e+06 M⁻¹ s⁻¹.

B18: 6470 rabbit Fab with heavy chain mutation N99K (Fab, V domains shown)
VH: B8 VH with K31H, N99K
VL: B8 VL
With B18, in test [2], the Kd worked out at 23.9 nM, the koff stood at 0.189 s⁻¹ and the kon is 7.89e+06 M⁻¹ s⁻¹. In test [3], the Kd came out at 20.7 nM, the koff stood at 0.207 s⁻¹ and the kon worked out at 1.58e+07 M⁻¹ s⁻¹.

B19: 6470 rabbit Fab with heavy chain mutation N99Q (Fab, V domains shown)
VH: B8 VH with K31H, N99Q
VL: B8 VL
Take B19: in test [2], the dissociation constant (Kd) turned out to be 1310 nM, the koff was found to be 0.493 s⁻¹ and the kon was found to be 375000 M⁻¹ s⁻¹. Also, in test [3], the Kd was 42.4 nM, the koff stood at 0.425 s⁻¹ and the kon worked out at 1.03e+07 M⁻¹ s⁻¹.

B20: 6470 rabbit Fab with heavy chain mutation N99W (Fab, V domains shown)
VH: B8 VH with K31H, N99W
VL: B8 VL
Consider B20, for which, in test [2], the Kd was determined as 61.3 nM, the koff turned out to be 0.566 s⁻¹ and the kon was determined as 9.22e+06 M⁻¹ s⁻¹. Also, in test [3], the Kd worked out at 25.3 nM, the off-rate (koff) was 0.134 s⁻¹ and the kon stood at 5.27e+06 M⁻¹ s⁻¹.

For the origin of these results see patent US20210107971A1 (UCB, published 2021).
